Reference: IntAct's records for PubMed 28642151

B1: Serine protease HTRA3 (Homo sapiens), P83110-1 (parent)
chain: MQARALLLAALAALALAREPPAAPCPARCDVSRCPSPRCPGGYVPDLCNCCLVCAASEGEPCGGPLDSPCGESLECVRGLCRCRWSHAVCGTDGHTYANVCALQAASRRALQLSGTPVRQLQKGACPLGLHQLSSPRYKFNFIADVVEKIAPAVVHIELFLRHPLFGRNVPLSSGSGFIMSEAGLIITNAHVVSSNSAAPGRQQLKVQLQNGDSYEATIKDIDKKSDIATIKIHPKKKLPVLLLGHSADLRPGEFVVAIGSPFALQNTVTTGIVSTAQREGRELGLRDSDMDYIQTDAIINYGNSGGPLVNLDGEVIGINTLKVTAGISFAIPSDRITRFLTEFQDKQIKDWKKRFIGIRMRTITPSLVDELKASNPDFPEVSSGIYVQEVAPNSPSQRGGIQDGDIIVKVNGRPLVDSSELQEAVLTESPLLLEVRRGNDDLLFSIAPEVVM
partner: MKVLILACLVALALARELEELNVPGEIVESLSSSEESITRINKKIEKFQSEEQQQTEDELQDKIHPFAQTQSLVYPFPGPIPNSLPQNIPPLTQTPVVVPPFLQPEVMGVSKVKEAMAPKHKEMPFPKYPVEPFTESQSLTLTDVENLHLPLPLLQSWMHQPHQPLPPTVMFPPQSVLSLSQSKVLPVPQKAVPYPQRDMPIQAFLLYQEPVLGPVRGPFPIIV
B2: Serine protease HTRA3 (Homo sapiens), P83110-1 (parent)
chain: B1 chain

Variants of: B1
Conditions: with casb_bovin CSN2, P02666

Row | Variant | effect of a mutation on the interaction
1 | MQARALLLAALAALALAREPPAAPCPARCDVSRCPSPRCPGGYVPDLCNCCLVCAASEGEPCGGPLDSPCGESLECVRGLCRCRWSHAVCGTDGHTYANVCALQAASRRALQLSGTPVRQLQKGACPLGLHQLSSPRYKFNFIADVVEKIAPAVVHIELFLRHPLFGRNVPLSSGSGFIMSEAGLIITNAHVVSSNSAAPGRQQLKVQLQNGDSYEATIKDIDKKSDIATIKIHPKKKLPVLLLGHSADLRPGEFVVAIGSPFALQNTVTTGIVSTAQREGRELGLRDSDMDYIQTDAIINYGNSGGPLVNLDGEVIGINTLKVTAGISFAIPSDRITRFLTEFQDKQIKDWKKRFIGIRMATITPSLVDALKASNPDFPEVSSGIYVAEVAPNSPSQRGGIQDGDIIVKVNGRPLVDSSELQEAVLTESPLLLEVRRGNDDLLFSIAPEVVM [R362A;E371A;Q389A] | with no effect

Variants of: B2
Conditions: with xiap_human XIAP

Row | Variant | effect of a mutation on the interaction
2 | MQARALLLAALAALALAREPPAAPCPARCDVSRCPSPRCPGGYVPDLCNCCLVCAASEGEPCGGPLDSPCGESLECVRGLCRCRWSHAVCGTDGHTYANVCALQAASRRALQLSGTPVRQLQKGACPLGLHQLSSPRYKFNFIADVVEKIAPAVVHIELFLRHPLFGRNVPLSSGSGFIMSEAGLIITNAHVVSSNSAAPGRQQLKVQLQNGDSYEATIKDIDKKSDIATIKIHPKKKLPVLLLGHSADLRPGEFVVAIGSPFALQNTVTTGIVSTAQREGRELGLRDSDMDYIQTDAIINYGNSGGPLVNLDGEVIGINTLKVTAGISFAIPSDRITRFLTEFQDKQIKDWKKRFIGIRMATITPSLVDALKASNPDFPEVSSGIYVAEVAPNSPSQRGGIQDGDIIVKVNGRPLVDSSELQEAVLTESPLLLEVRRGNDDLLFSIAPEVVM [R362A;E371A;Q389A] | with no effect
